# Test results published in paper PMC9299196, “Profiling the specificity of clonally expanded plasma cells during chronic viral infection by single‐cell analysis” (European Journal of Immunology, 2021).
# Substitutions are numbered along the chain they refer to. Read-outs that look alike come from different tables or passages of the source.
# T1: LCMV clone 13 nucleocapsid protein (NP), purified recombinant (Lymphocytic choriomeningitis virus …, UniProt P09992 1-558)
# T1 chain: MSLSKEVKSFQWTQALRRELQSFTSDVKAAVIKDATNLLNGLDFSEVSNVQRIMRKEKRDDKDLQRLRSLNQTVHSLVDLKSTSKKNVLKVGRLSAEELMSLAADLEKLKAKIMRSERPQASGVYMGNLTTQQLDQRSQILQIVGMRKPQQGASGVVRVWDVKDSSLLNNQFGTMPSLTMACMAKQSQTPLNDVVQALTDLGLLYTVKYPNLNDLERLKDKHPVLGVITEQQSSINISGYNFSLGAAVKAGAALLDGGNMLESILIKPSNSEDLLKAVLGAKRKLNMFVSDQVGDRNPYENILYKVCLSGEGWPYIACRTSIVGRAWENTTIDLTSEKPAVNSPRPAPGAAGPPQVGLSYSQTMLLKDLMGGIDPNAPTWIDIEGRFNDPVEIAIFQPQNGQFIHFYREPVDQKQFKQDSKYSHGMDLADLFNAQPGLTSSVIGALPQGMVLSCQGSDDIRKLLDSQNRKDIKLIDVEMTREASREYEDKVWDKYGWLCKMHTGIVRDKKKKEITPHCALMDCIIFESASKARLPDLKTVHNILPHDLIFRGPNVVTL
# B1: Rank2.4 (antibody, V domains shown)
# VH: EVQLQQSGPELVKPGASVKMSCKASGYTFTDYNMHWVKQSHGKSLEWFGYIDPNNGGIRYNQLFKGKATLTVNKTSRIAYMELRSLTSEDSAVYYCAREGGYWYFDVWGTGTTVIVSS
# VL: DIVMTQSHKFKSTPVGDRVSITCKASQDVSTAVAWYQQKPGQSPKLLIYWASTRHTGVPDRFTGSGSGTDYTLTISSVQAEDLALYYCQQHYSTPFTFGSGTKLEIK
# B2: third additionally expressed variant of the second most expanded IgG clone (single-reactive) (antibody, V domains shown)
# VH: B1 VH with T30I, F48I, D52N, I58T, R59N, L63K, T75S, R77S, I78T, I115T
# VL: B1 VL with K11M, P14S, K103E
# notes: also called one of the three tested variants; single-reactive antibody
# B3: NP-specific, second most expanded IgG clone, most expanded antibody variant (antibody, V domains shown)
# VH: B1 VH with F48I, D52N, I58T, R59S, L63K, T75S, R77S, I78T, I115T
# VL: B1 VL with K11M, P14S
# notes: also called second most expanded clone; previously tested variant
# B4: Rank2.5 (antibody, V domains shown)
# VH: B1 VH with F48I, D52N, I58S, L63K, V72G, T75S, R77S, I78T, I115T
# VL: B1 VL with K11M, P14S, V33I
# B5: NP-specific IgG clone other than the second most expanded clone (antibody, V domains shown)
# VH: QVQLQQSDAELVKPGASVKISCKVSGYTFTDHTIHWMKQRPEQGLEWIGYIYPRDGSTKYNEKFKGKATLTADKSSSTAYMQLNSLTSEDSAVYFCARGGYYGFYYFDYWGQGTTLTVSS
# VL: DIVLTQSPASLAVSLGQRATISCRASESVEYYGTSLMQWYQQKPGQPPKLLIYAASNVESGVPARFSGSGSGTDFSLNIHPVEEDDIAMYFCQQSWKVPYTFGGGTKLEIK
# notes: also called one of the two NP-specific clones
# Legend:
# [1] = target: T2, LCMV clone 13 nucleocapsid protein (NP), purified recombinant (LCMV clone 13 (stand-in: strain …, UniProt P09992, strain))
# [2] = target: T2, LCMV clone 13 nucleocapsid protein …; test: ELISA; conditions: one partner purified
# [3] = target: T1, LCMV clone 13 nucleocapsid protein …; test: BLI
Binder,binding result [1],binding result [2],Kd [3] [nM]
B1,binds,,
B2,,binds,370
B3,,binds,470
B4,binds,,
B5,,binds,
